From the supplement of paper PMC10724198
± gives the standard deviation of the averaged measurements.

These sequences were tested on Saccharomyces cerevisiae (assay: protein stability index of tFT-peptide fusion (C-terminal peptide) (PSI (0-1 scale)); higher = more stable (slower turnover)). Settings: genetic background: wild type; temperature: 30 C.
Experimental: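 Multiplexed protein stability (MPS) profiling in S. cerevisiae. Random 12-aa peptides (tFT-X12 library) are fused to the C-terminus of a sfGFP-mCherry tandem fluorescent timer, after mCherry and a GGGS linker. Cells are FACS-sorted into 8 mCherry/sfGFP bins and deep-sequenced. The protein stability index (PSI) is the read-weighted bin average, scaled from 0 (unstable) to 1 (stable). Only peptides with >10 reads are reported; cells were grown at 30 °C in SC-His with glucose.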
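Further: PSI is a weighted mean of sequencing reads over stability bins, variants kept only with over 10 reads, mCherry proximal and sfGFP distal, peptide attached via GGGS linker.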

In order of falling protein stability index:
1. GDIQRSNNFTIG  0.779 ± 0.05
2. GAGGVWVRAWGP  0.768 ± 0.095
3. GDEDVSWLVFMG  0.762 ± 0.024
4. GGARGDEGGGSA  0.761 ± 0.055
5. GCRDQKLGVGVD  0.759 ± 0.064
6. GFCSGGVFVEWV  0.754 ± 0.065
7. GCEGGGRVGSWT  0.742 ± 0.028
8. GEQLNWSREPWY  0.735 ± 0.038
9. GAGLLRLWEVGG  0.733 ± 0.049
10. GCFLSERLFTPL  0.7304 ± 0.00085
11. GFYPGRSKGCLG  0.73 ± 0.05
12. GGCEWWSWGRGG  0.729 ± 0.041
13. GGALDQADGGRS  0.7269 ± 0.0014
14. GALVLWTGCTYS  0.726 ± 0.0033
15. GCVGGGWRHVGV  0.725 ± 0.059
16. GCWGAGESTLGG  0.724 ± 0.0084
17. GARRSAVPWSPK  0.723 ± 0.018
18. GEGVRGGEWGLD  0.717 ± 0.053
19. GGCEGIRAVGWV  0.716 ± 0.04
20. GAVAAVPRGGIL  0.715 ± 0.018
21. GDCIDCFKLVGI  0.711 ± 0.035
22. GCWAGLGAPGVS  0.71 ± 0.027
23. GGCCGRVWGSVE  0.71 ± 0.054
24. GAVSRRALPRRP  0.709 ± 0.016
25. GEAKAARNKRMI  0.708 ± 0.024
26. GCCGGRLWEGGG  0.707 ± 0.013
27. GEGRAAGEIGGV  0.707 ± 0.033
28. GERKRQQRKREE  0.707 ± 0.064
29. GDVLLLVGAGER  0.706 ± 0.1
30. GCGGLCQGGGGW  0.704 ± 0.084
31. GGCGGGGGVVVR  0.7029 ± 0.0021
32. GCSLWAVRTWGL  0.699 ± 0.01
33. GAVHLNSLPVTK  0.6983 ± 0.0044
34. GCLLVVAGGGRG  0.698 ± 0.069
35. GCVGGWCGGSGA  0.698 ± 0.083
36. GCWGEWGWVGRG  0.696 ± 0.035
37. GASSLGVNGGSV  0.6954 ± 0.0021
38. GCRGEGGWVGRG  0.6955 ± 0.0029
39. FYAGELSCRHQT  0.694 ± 0.025
40. GGCNLLGRGPDF  0.694 ± 0.024
41. GEGRRYVVVTEG  0.693 ± 0.035
42. GCASAAMFPEEL  0.691 ± 0.053
43. GGAGSFVEKEID  0.69 ± 0.044
44. GGAWGHCSHEWS  0.6882 ± 0.0052
45. GDSKTKDEMYKI  0.6867 ± 0.0045
46. GDTVLLCDLASC  0.687 ± 0.0092
47. GAIRLSLMLLPQ  0.686 ± 0.042
48. GCRLVEGAVRLE  0.686 ± 0.048
49. GGAGLGVVLGWW  0.6833 ± 0.0062
50. GDYGRLINLVTR  0.6815 ± 0.0059
51. GFRVRCSICGSA  0.681 ± 0.073
52. GGALFVCSSVGR  0.681 ± 0.033
53. GASGGRIGEGEE  0.679 ± 0.011
54. GEGGEGWGCFSF  0.677 ± 0.021
55. GCLRLCYQHWSP  0.6764 ± 0.005
56. GAVSVVFGWTDV  0.672 ± 0.021
57. GDMSIWRSNNIT  0.6723 ± 0.00088
58. FYGLPSVVCGWF  0.671 ± 0.025
59. GDRTIALFFFTI  0.671 ± 0.024
60. GARRLGLMVFDG  0.669 ± 0.066
61. GDGGGMVEGLSR  0.66946 ± 0.00014
62. GERLGEWGGGVG  0.669 ± 0.0093
63. GFGSSSFLCFSR  0.669 ± 0.042
64. GFATCSFPVCRV  0.661 ± 0.027
65. GFLWLLGGVLGV  0.658 ± 0.082
66. GCCWGCRIGEAV  0.6557 ± 0.0052
67. GAGGARRLAVGQ  0.655 ± 0.014
68. GCGAMGWAVPAA  0.655 ± 0.041
69. GALVGFPAFFLL  0.654 ± 0.011
70. GDRGIKAYGVRG  0.65 ± 0.015
71. GAPTRSYGERKR  0.647 ± 0.0097
72. GCLPGGKRESRG  0.647 ± 0.11
73. GCRGWRSVGRGR  0.644 ± 0.025
74. GCRSQRSDSLMM  0.644 ± 0.028
75. GDGGGCWSGVGW  0.643 ± 0.1
76. GGALLGGGAMGL  0.643 ± 0.037
77. GDASLSSLHIRL  0.642 ± 0.02
78. GCGEGVGASVGR  0.641 ± 0.011
79. GESGGGAVGGGW  0.64 ± 0.039
80. GDMKCVTRDSFI  0.638 ± 0.054
81. GFALVVGNLISF  0.636 ± 0.021
82. GEAREEEKKGRW  0.631 ± 0.027
83. GGCAAGVGRLAV  0.624 ± 0.075
84. GAFKSRAGGGSG  0.621 ± 0.093
85. GEGKAGGESEEP  0.62 ± 0.068
86. GEKKKAILGKRK  0.62 ± 0.011
87. GAVWAWRRLKGG  0.619 ± 0.035
88. GEERRGRCGEKQ  0.597 ± 0.087
89. GFGKRGKDQDTY  0.595 ± 0.033
90. GCEGGWLGEGIG  0.593 ± 0.014
91. GCGGVEAVGGVC  0.586 ± 0.025
92. GFHCRLRVSTFG  0.585 ± 0.019
93. GCSPTLMVSFIA  0.572 ± 0.037
94. GFTVVGCSYVTT  0.5572 ± 0.0023
95. GDSESRTWCQNL  0.548 ± 0.02
96. GEVRHCRVTVIA  0.539 ± 0.036
97. GCWVNFLLTHFF  0.527 ± 0.024
98. GFLCFRWACVRL  0.487 ± 0.028
